For assay [1], the target named is human glucagon receptor encoded by plasmid pLJ6' (human). Description: in situ 125I-glucagon binding with emulsion autoradiography on pLJ6'-transfected COS 7 cells.
For assay [2], the target named is glucagon receptors of rat liver membrane preparations (rat) (UniProt P30082). Description: Scatchard analysis of 125I-glucagon binding in competition with unlabeled glucagon, rat liver membranes.
Assay [3] addresses rat glucagon receptor encoded by plasmid pLJ4 (rat).
Assay [4] has the same target. This is another data set of the same source.
Assay [5] shares this target. The source holds these as a separate data set.
For assay [6] the target is unchanged. The source holds these as a separate data set.
Assay [7] shares this target. Put plainly: Scatchard analysis of 125I-glucagon binding in competition with unlabeled glucagon, membranes of pLJ4 BHK transfectants.
The target in assay [8] is T1, bovine parathyroid hormone (PTH) (Sigma) (bovine, UniProt P01268).
T1 sequence (peptide): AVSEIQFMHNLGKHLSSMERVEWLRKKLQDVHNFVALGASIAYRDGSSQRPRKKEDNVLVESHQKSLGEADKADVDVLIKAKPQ
Description: competition with 125I-glucagon, membranes of pLJ4 BHK transfectants. On the procedure: The binding reaction was initiated by the addition of 20 µl of a membrane preparation to the reaction tubes. The reactions were incubated for 30 minutes at 30° C. The membranes were pelleted by centrifugation in a microfuge at high speed for 10 minutes at 4° C. The supernatants from each sample were aspirated, and the pellets were counted.

As a reminder, the Kd is a measure of binding affinity in units of concentration.

In assay [1], “125I-glucagon (Amersham receptor grade) (ligand)” returned a percent of transfected cells that bound glucagon greater than 50%.

Consider glucagon (ligand), for which, in assay [2], the Kd amounted to 49 nM. In assay [3], the fold induction of luciferase (CRE-luciferase) fell in the range of 6 to 10 fold. Further, in assay [4], the ED50 of cAMP induction is 0.25 nM and the induction of cAMP levels (scintillation proximity radioimmunoassay) was 140 fold. Further, in assay [5], the intracellular calcium concentration (fura-2 photoimaging) is 400 nM. Further, the cAMP levels (Amersham SPA kit) in assay [6] was 5 fold. The molecule further registered a dissociation constant (Kd) in assay [7] of 50 nM.

B1: rat glucagon receptor encoded by plasmid pLJ4 (receptor)
chain: AQVMDFLFEKWKLYSDQCHHNLSLLPPPTELVCNRTFDKYSCWPDTPPNTTANISCPWYLPWYHKVQHRLVFKRCGPDGQWVRGPRGQSWRDASQCQMDDDEIEVQKGVAKMYSSYQVMYTVGYSLSLGALLLALVILLGLRKLHCTRNYIHGNLFASFVLKAGSVLVIDWLLKTRYSQKIGDDLSVSVWLSDGAVAGCRVATVIMQYGIIANYCWLLVEGVYLYSLLSITTFSEKSFFSLYLCIGWGSPLLFVIPWVVVKCLFENVQCWTSNDNMGFWWILRIPVLLAILINFFIFVRIIHLLVAKLRAHQMHYADYKFRLARSTLTLIPLLGVHEVVFAFVTDEHAQGTLRSTKLFFDLFFSSFQGLLVAVLYCFLNKEVQAELLRRWRRWQEGKALQEERMASSHGSHMAPAGTCHGDPCEKLQLMSAGSSSGTGCEPSAKTSLASSLPRLADSPT
Take B1: the binding result in assay [8] is listed as “no binding (tested: 1 µM)”.

The record behind these values is patent US5776725, “Recombinant production of glucagon receptors” (ZymoGenetics, Inc., dated 1998).
